Reference: patent publication US20260049138A1 (Chugai, published 2026)

B1: CE115HA000 Y100aS one-arm antibody (antibody, human IgG1, kappa, L234A L235A, N297A, name in Kabat numbering)
heavy: QVQLVESGGGVVQPGRSLRLSCAASGFTFSNAWMHWVRQAPGKGLEWVAQIKAKSNNYATYYAESVKGRFTISRDDSKNSLYLQMNSLKTEDTAVYYCRYVHYGAYSGVDAWGQGTTVTVSSASTKGPSVFPLAPSSKSTSGGTAALGCLVKDYFPEPVTVSWNSGALTSGVHTFPAVLQSSGLYSLSSVVTVPSSSLGTQTYICNVNHKPSNTKVDKKVEPKSCDKTHTCPPCPAPEAAGGPSVFLFPPKPKDTLMISRTPEVTCVVVDVSHEDPEVKFNWYVDGVEVHNAKTKPREEQYASTYRVVSVLTVLHQDWLNGKEYKCKVSNKALPAPIEKTISKAKGQPREPQVYTLPPSRCELTKNQVSLSCAVKGFYPSDIAVEWESNGQPENNYKTTPPVLDSDGSFFLVSKLTVDKSRWQQGNVFSCSVMHEALHNHYTQKSLSLSPDYKDDDDK
chain: EPKSSDKTHTCPPCPAPELLGGPSVFLFPPKPKDTLMISRTPEVTCVVVDVSHEDPEVKFNWYVDGVEVHNAKTKPREEQYNSTYRVVSVLTVLHQDWLNGKEYKCKVSNKALPAPIEKTISKAKGQPREPQVCTLPPSRDELTKNQVSLWCLVKGFYPSDIAVEWESNGQPENNYKTTPPVLDSDGSFFLYSKLTVDKSRWQQGNVFSCSVMHEALHNRYTQKSLSLSP
light: DIVMTQSPLSLPVTPGEPASISCRSSQSLVHSNRNTYLHWYQQKPGQAPRLLIYKVSNRFSGVPDRFSGSGSGTDFTLKISRVEAEDVGVYYCGQGTQVPYTFGQGTKLEIKRTVAAPSVFIFPPSDEQLKSGTASVVCLLNNFYPREAKVQWKVDNALQSGNSQESVTEQDSKDSTYSLSSTLTLSKADYEKHKVYACEVTHQGLSSPVTKSFNRGEC
B2: CE115HA000 Y100aL one-arm antibody (antibody, human IgG1, kappa, L234A L235A, N297A, name in Kabat numbering)
heavy: QVQLVESGGGVVQPGRSLRLSCAASGFTFSNAWMHWVRQAPGKGLEWVAQIKAKSNNYATYYAESVKGRFTISRDDSKNSLYLQMNSLKTEDTAVYYCRYVHYGAYLGVDAWGQGTTVTVSSASTKGPSVFPLAPSSKSTSGGTAALGCLVKDYFPEPVTVSWNSGALTSGVHTFPAVLQSSGLYSLSSVVTVPSSSLGTQTYICNVNHKPSNTKVDKKVEPKSCDKTHTCPPCPAPEAAGGPSVFLFPPKPKDTLMISRTPEVTCVVVDVSHEDPEVKFNWYVDGVEVHNAKTKPREEQYASTYRVVSVLTVLHQDWLNGKEYKCKVSNKALPAPIEKTISKAKGQPREPQVYTLPPSRCELTKNQVSLSCAVKGFYPSDIAVEWESNGQPENNYKTTPPVLDSDGSFFLVSKLTVDKSRWQQGNVFSCSVMHEALHNHYTQKSLSLSPDYKDDDDK
chain: EPKSSDKTHTCPPCPAPELLGGPSVFLFPPKPKDTLMISRTPEVTCVVVDVSHEDPEVKFNWYVDGVEVHNAKTKPREEQYNSTYRVVSVLTVLHQDWLNGKEYKCKVSNKALPAPIEKTISKAKGQPREPQVCTLPPSRDELTKNQVSLWCLVKGFYPSDIAVEWESNGQPENNYKTTPPVLDSDGSFFLYSKLTVDKSRWQQGNVFSCSVMHEALHNRYTQKSLSLSP
light: DIVMTQSPLSLPVTPGEPASISCRSSQSLVHSNRNTYLHWYQQKPGQAPRLLIYKVSNRFSGVPDRFSGSGSGTDFTLKISRVEAEDVGVYYCGQGTQVPYTFGQGTKLEIKRTVAAPSVFIFPPSDEQLKSGTASVVCLLNNFYPREAKVQWKVDNALQSGNSQESVTEQDSKDSTYSLSSTLTLSKADYEKHKVYACEVTHQGLSSPVTKSFNRGEC
B3: CE115HA000 Y100aQ one-arm antibody (antibody, human IgG1, kappa, L234A L235A, N297A, name in Kabat numbering)
heavy: QVQLVESGGGVVQPGRSLRLSCAASGFTFSNAWMHWVRQAPGKGLEWVAQIKAKSNNYATYYAESVKGRFTISRDDSKNSLYLQMNSLKTEDTAVYYCRYVHYGAYQGVDAWGQGTTVTVSSASTKGPSVFPLAPSSKSTSGGTAALGCLVKDYFPEPVTVSWNSGALTSGVHTFPAVLQSSGLYSLSSVVTVPSSSLGTQTYICNVNHKPSNTKVDKKVEPKSCDKTHTCPPCPAPEAAGGPSVFLFPPKPKDTLMISRTPEVTCVVVDVSHEDPEVKFNWYVDGVEVHNAKTKPREEQYASTYRVVSVLTVLHQDWLNGKEYKCKVSNKALPAPIEKTISKAKGQPREPQVYTLPPSRCELTKNQVSLSCAVKGFYPSDIAVEWESNGQPENNYKTTPPVLDSDGSFFLVSKLTVDKSRWQQGNVFSCSVMHEALHNHYTQKSLSLSPDYKDDDDK
chain: EPKSSDKTHTCPPCPAPELLGGPSVFLFPPKPKDTLMISRTPEVTCVVVDVSHEDPEVKFNWYVDGVEVHNAKTKPREEQYNSTYRVVSVLTVLHQDWLNGKEYKCKVSNKALPAPIEKTISKAKGQPREPQVCTLPPSRDELTKNQVSLWCLVKGFYPSDIAVEWESNGQPENNYKTTPPVLDSDGSFFLYSKLTVDKSRWQQGNVFSCSVMHEALHNRYTQKSLSLSP
light: DIVMTQSPLSLPVTPGEPASISCRSSQSLVHSNRNTYLHWYQQKPGQAPRLLIYKVSNRFSGVPDRFSGSGSGTDFTLKISRVEAEDVGVYYCGQGTQVPYTFGQGTKLEIKRTVAAPSVFIFPPSDEQLKSGTASVVCLLNNFYPREAKVQWKVDNALQSGNSQESVTEQDSKDSTYSLSSTLTLSKADYEKHKVYACEVTHQGLSSPVTKSFNRGEC
B4: 154R4B07#1 one-arm antibody (antibody, human IgG1, kappa, L234A L235A, N297A)
heavy: QVQLVESGGGLVQPGRSLRLSCAASGFTFSNAWMHWVRQAPGKGLEWVAQIKDRGNNYAAYYAESVKGRFTISRDDSKNSIYLQMNSLKTEDTAVYYCRYVHYGSYFFASFYFGVDIWGQGTTVTVSSASTKGPSVFPLAPSSKSTSGGTAALGCLVKDYFPEPVTVSWNSGALTSGVHTFPAVLQSSGLYSLSSVVTVPSSSLGTQTYICNVNHKPSNTKVDKKVEPKSCDKTHTCPPCPAPEAAGGPSVFLFPPKPKDTLMISRTPEVTCVVVDVSHEDPEVKFNWYVDGVEVHNAKTKPREEQYASTYRVVSVLTVLHQDWLNGKEYKCKVSNKALPAPIEKTISKAKGQPREPQVYTLPPSRCELTKNQVSLSCAVKGFYPSDIAVEWESNGQPENNYKTTPPVLDSDGSFFLVSKLTVDKSRWQQGNVFSCSVMHEALHNHYTQKSLSLSPDYKDDDDK
chain: EPKSSDKTHTCPPCPAPELLGGPSVFLFPPKPKDTLMISRTPEVTCVVVDVSHEDPEVKFNWYVDGVEVHNAKTKPREEQYNSTYRVVSVLTVLHQDWLNGKEYKCKVSNKALPAPIEKTISKAKGQPREPQVCTLPPSRDELTKNQVSLWCLVKGFYPSDIAVEWESNGQPENNYKTTPPVLDSDGSFFLYSKLTVDKSRWQQGNVFSCSVMHEALHNRYTQKSLSLSP
light: DIVMTQSPLSLPVTPGEPASISCRSSQSLVHSNRNTYLHWYQQKPGQAPRLLIYKVSNRFSGVPDRFSGSGSGTDFTLKISRVEAEDVGVYYCGQGTQVPYTFGQGTKLEIKRTVAAPSVFIFPPSDEQLKSGTASVVCLLNNFYPREAKVQWKVDNALQSGNSQESVTEQDSKDSTYSLSSTLTLSKADYEKHKVYACEVTHQGLSSPVTKSFNRGEC
notes: As m48
B5: 154R3A01#1 one-arm antibody (antibody, human IgG1, kappa, L234A L235A, N297A)
heavy: QVQLVESGGGLVQPGRSLRLSCAASGFTFSNAWMHWVRQAPGKGLEWVAQIKDRVNQYANYYAESVKGRFTISRDDSKNSIYLQMNSLKTEDTAVYYCRYVHYGLTGYFSGQGGVDAWGQGTTVTVSSASTKGPSVFPLAPSSKSTSGGTAALGCLVKDYFPEPVTVSWNSGALTSGVHTFPAVLQSSGLYSLSSVVTVPSSSLGTQTYICNVNHKPSNTKVDKKVEPKSCDKTHTCPPCPAPEAAGGPSVFLFPPKPKDTLMISRTPEVTCVVVDVSHEDPEVKFNWYVDGVEVHNAKTKPREEQYASTYRVVSVLTVLHQDWLNGKEYKCKVSNKALPAPIEKTISKAKGQPREPQVYTLPPSRCELTKNQVSLSCAVKGFYPSDIAVEWESNGQPENNYKTTPPVLDSDGSFFLVSKLTVDKSRWQQGNVFSCSVMHEALHNHYTQKSLSLSPDYKDDDDK
chain: EPKSSDKTHTCPPCPAPELLGGPSVFLFPPKPKDTLMISRTPEVTCVVVDVSHEDPEVKFNWYVDGVEVHNAKTKPREEQYNSTYRVVSVLTVLHQDWLNGKEYKCKVSNKALPAPIEKTISKAKGQPREPQVCTLPPSRDELTKNQVSLWCLVKGFYPSDIAVEWESNGQPENNYKTTPPVLDSDGSFFLYSKLTVDKSRWQQGNVFSCSVMHEALHNRYTQKSLSLSP
light: DIVMTQSPLSLPVTPGEPASISCRSSQSLVHSNRNTYLHWYQQKPGQAPRLLIYKVSNRFSGVPDRFSGSGSGTDFTLKISRVEAEDVGVYYCGQGTQVPYTFGQGTKLEIKRTVAAPSVFIFPPSDEQLKSGTASVVCLLNNFYPREAKVQWKVDNALQSGNSQESVTEQDSKDSTYSLSSTLTLSKADYEKHKVYACEVTHQGLSSPVTKSFNRGEC
B6: 154R4F08#1 one-arm antibody (antibody, human IgG1, kappa, L234A L235A, N297A)
heavy: QVQLVESGGGLVQPGHSLRLSCAASGFTFSNAWMHWVRQAPGKGLEWVAQIKDRGNNYAAYYAESVKGRFTISRDDSKNSIYLQMNSLKTEDTAVYYCRYVHYGSYFFASFYFGVDIWGQGTTVTVSSASTKGPSVFPLAPSSKSTSGGTAALGCLVKDYFPEPVTVSWNSGALTSGVHTFPAVLQSSGLYSLSSVVTVPSSSLGTQTYICNVNHKPSNTKVDKKVEPKSCDKTHTCPPCPAPEAAGGPSVFLFPPKPKDTLMISRTPEVTCVVVDVSHEDPEVKFNWYVDGVEVHNAKTKPREEQYASTYRVVSVLTVLHQDWLNGKEYKCKVSNKALPAPIEKTISKAKGQPREPQVYTLPPSRCELTKNQVSLSCAVKGFYPSDIAVEWESNGQPENNYKTTPPVLDSDGSFFLVSKLTVDKSRWQQGNVFSCSVMHEALHNHYTQKSLSLSPDYKDDDDK
chain: EPKSSDKTHTCPPCPAPELLGGPSVFLFPPKPKDTLMISRTPEVTCVVVDVSHEDPEVKFNWYVDGVEVHNAKTKPREEQYNSTYRVVSVLTVLHQDWLNGKEYKCKVSNKALPAPIEKTISKAKGQPREPQVCTLPPSRDELTKNQVSLWCLVKGFYPSDIAVEWESNGQPENNYKTTPPVLDSDGSFFLYSKLTVDKSRWQQGNVFSCSVMHEALHNRYTQKSLSLSP
light: DIVMTQSPLSLPVTPGEPASISCRSSQSLVHSNRNTYLHWYQQKPGQAPRLLIYKVSNRFSGVPDRFSGSGSGTDFTLKISRVEAEDVGVYYCGQGTQVPYTFGQGTKLEIKRTVAAPSVFIFPPSDEQLKSGTASVVCLLNNFYPREAKVQWKVDNALQSGNSQESVTEQDSKDSTYSLSSTLTLSKADYEKHKVYACEVTHQGLSSPVTKSFNRGEC
notes: As m48

Biological target: T1, CD3ε homodimer protein (human, UniProt P07766 23-126, limits assumed, sulfo-tag or biotin label in the ECL assays; amine-coupled to the chip in SPR)
T1 construct: also called human CD3ε homodimer protein; CD3 (CD3ε)
T1 sequence (P07766 23-126 limits assumed): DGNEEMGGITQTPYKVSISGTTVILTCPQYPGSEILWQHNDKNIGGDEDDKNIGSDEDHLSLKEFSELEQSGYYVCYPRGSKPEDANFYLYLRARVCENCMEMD
Assay: SPR Biacore T200; CD3ε homodimer on CM4 chip;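 note: Single-residue variant antibodies injected as analyte over CD3ε homodimer immobilized by amine coupling, run at 25 °C in HBS-EP+ buffer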

Going from B1 to B2, the “ratio of amounts bound Z=Y/X (altered form / CE115HA000)” value falls from 0.64 to 0.48.

B3 was tested, and the “ratio of amounts bound Z=Y/X (altered form / CE115HA000)” value was 0.56.

Biological target: T2, human CD154 (human, UniProt P29965 113-261, limits assumed, biotin-labeled)
T2 construct: also called biotin-labeled human CD154; biotinylated human CD154
T2 sequence (looked up): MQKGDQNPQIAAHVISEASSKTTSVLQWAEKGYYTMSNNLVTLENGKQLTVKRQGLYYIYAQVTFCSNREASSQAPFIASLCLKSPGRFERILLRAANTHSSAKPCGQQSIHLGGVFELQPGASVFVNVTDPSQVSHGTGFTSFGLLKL
Assay: ECL competition, CD3ε[+]: CD3ε homodimer added as competitor [1]
Experimental: Next, each obtained IgG was evaluated for its binding to CD3 and human CD154 at the same time by the competition method (electrochemiluminescence method (ECL method)).
A TBST solution containing 0.5% BSA (referred to as a blocking solution; the TBST solution was TBS (manufactured by Takara Bio Inc.) supplemented with 0.1% Tween 20) was added at 150 μL/well to streptavidin plate (MSD K.K.), and the plate was incubated at room temperature for 1 hour or longer. After removal of the blocking solution, each well was washed three times with 250 μL of a TBST solution. The antibody-antigen complex solution was added thereto at 50 μL/well, and the plate was incubated at room temperature for 1 hour so that the biotinylated antigen-antibody-detection sulfo-tag antibody complex solution bound via the biotinylated antigen to the streptavidin plate. After removal of the antibody-antigen complex solution, each well was washed three times with a TBST solution, and a solution of 4×READ buffer (MSD K.K.) diluted 2-fold with water was added thereto at 150 μL/well, followed by the detection of the luminescence signal of the sulfo-tag using Sector Imager 2400 (MSD K.K.).

Compared with B4, B5 is higher in “relative ECL reaction (to no antigen coating)” value: 1 for the first, 21 for the second.

For B6, the “relative ECL reaction (to no antigen coating)” value was 1.
